# Assay results from publication PMC9518701.
# Read-outs that look alike come from different tables or passages of the source.
# Key:
# [1] = biological target: human neonatal Fc receptor (FcRn) (human) (UniProt P55899); assay: SPR; pH 6.0
# FcγRIIb = assay: SPR
# FcγRIIa (R131) = assay: SPR
# FcγRIIa (H131) = assay: SPR
# FcγRIIIa (V158) = assay: SPR
# FcγRI = assay: SPR
# FcγRIIIa (F158) = assay: SPR
# [2] = biological target: SARS-CoV-2 spike protein receptor binding domain (RBD) (SARS-CoV-2) (UniProt P0DTC2)
# [3] = biological target: SARS-CoV-2 spike protein receptor binding domain (RBD) (SARS-CoV-2) (UniProt P0DTC2); remark: listed apart in the source
# [4] = biological target: SARS-CoV-2 spike protein receptor binding domain (RBD) (SARS-CoV-2) (UniProt P0DTC2); remark: listed apart in the source
# [5] = biological target: SARS-CoV-2 spike protein receptor binding domain (RBD) (SARS-CoV-2, wild type (Wuhan-Hu-1 reference)) (UniProt P0DTC2); assay: SPR
# [6] = biological target: SARS-CoV-2 spike protein receptor binding domain (RBD) (SARS-CoV-2, wild type (Wuhan-Hu-1 reference)) (UniProt P0DTC2)
# Chain of human neonatal Fc receptor (FcRn) (human) (P55899 24-297, chain 1 of 2): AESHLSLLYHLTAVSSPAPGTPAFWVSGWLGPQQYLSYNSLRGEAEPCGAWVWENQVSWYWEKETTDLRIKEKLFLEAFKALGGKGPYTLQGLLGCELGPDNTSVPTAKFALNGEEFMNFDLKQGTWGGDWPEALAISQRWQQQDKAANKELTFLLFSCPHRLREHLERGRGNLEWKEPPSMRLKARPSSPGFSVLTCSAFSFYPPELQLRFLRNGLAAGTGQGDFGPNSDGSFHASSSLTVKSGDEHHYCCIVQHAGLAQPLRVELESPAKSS
# Chain of human neonatal Fc receptor (FcRn) (human) (partner, as listed by the source, chain 2 of 2): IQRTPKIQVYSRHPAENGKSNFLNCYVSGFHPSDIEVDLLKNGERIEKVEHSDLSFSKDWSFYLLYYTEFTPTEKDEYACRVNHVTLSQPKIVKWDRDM
substance,measurement,setting,value
romlusevimab (BRII-198),Kd,[1],0.36 nM
same,Kd,FcγRIIb,35300 nM
same,Kd,FcγRIIa (R131),23700 nM
same,Kd,FcγRIIa (H131),13200 nM
same,Kd,FcγRIIIa (V158),731 nM
same,Kd,FcγRI,2.77 nM
same,Kd,FcγRIIIa (F158),4450 nM
combination of amubarvimab and romlusevimab,other,[2],0.16 µg/mL
same,IC50,[3],16.4 nM
same,other,[4],0.047 µg/mL
amubarvimab (BRII-196) (antibody),Kd,[5],5.88 nM
same,other,[6],0.026 µg/mL
